This is an account of results in patent EP4772193A1 (Teijin Pharma Limited, dated 2026).

Test [1] has as its target T1, recombinant mouse soluble gpNMB (recombinant mouse gpNMB-FLAG-His) (mouse, UniProt Q99P91 23-502).
T1 sequence: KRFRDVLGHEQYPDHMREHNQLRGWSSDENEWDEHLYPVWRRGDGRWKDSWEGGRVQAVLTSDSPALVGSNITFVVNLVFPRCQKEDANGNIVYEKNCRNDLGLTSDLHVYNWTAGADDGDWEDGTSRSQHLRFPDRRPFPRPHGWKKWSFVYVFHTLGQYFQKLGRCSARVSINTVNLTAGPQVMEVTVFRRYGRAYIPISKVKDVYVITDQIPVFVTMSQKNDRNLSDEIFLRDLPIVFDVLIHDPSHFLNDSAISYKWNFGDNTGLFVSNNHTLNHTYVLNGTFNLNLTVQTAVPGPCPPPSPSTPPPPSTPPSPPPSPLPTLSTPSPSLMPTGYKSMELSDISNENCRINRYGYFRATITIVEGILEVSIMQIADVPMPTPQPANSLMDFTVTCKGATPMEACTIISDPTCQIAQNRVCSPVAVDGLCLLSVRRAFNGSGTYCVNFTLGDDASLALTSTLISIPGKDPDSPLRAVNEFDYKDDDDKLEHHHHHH
The test can be described thus: SPR, antibody 100 nM over captured gpNMB-FLAG-His, 25C.

For test [2], the target named is T2, recombinant human soluble gpNMB (recombinant human gpNMB-FLAG-His) (human, UniProt Q14956 23-498).
T2 sequence: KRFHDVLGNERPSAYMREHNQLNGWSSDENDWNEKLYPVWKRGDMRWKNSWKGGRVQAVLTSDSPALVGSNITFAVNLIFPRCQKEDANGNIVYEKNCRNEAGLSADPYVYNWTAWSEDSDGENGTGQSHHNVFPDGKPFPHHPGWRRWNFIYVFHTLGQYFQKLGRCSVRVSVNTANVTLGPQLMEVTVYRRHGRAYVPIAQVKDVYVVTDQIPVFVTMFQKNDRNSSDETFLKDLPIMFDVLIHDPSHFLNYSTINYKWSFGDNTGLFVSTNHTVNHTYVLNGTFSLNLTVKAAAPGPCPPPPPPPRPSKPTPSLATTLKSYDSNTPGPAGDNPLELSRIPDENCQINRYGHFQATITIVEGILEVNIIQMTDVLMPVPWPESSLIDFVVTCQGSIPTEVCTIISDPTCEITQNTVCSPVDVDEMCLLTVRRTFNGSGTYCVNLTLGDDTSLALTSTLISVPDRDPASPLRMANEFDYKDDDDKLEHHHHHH
The description is as above.

B1: GPN05-1 (antibody, V domains shown)
VH: QVQLQQSGAELVRPGTSVKVSCKASGYAFSNHLIEWVKQRPGQGLEWIGVINPGSGGTNYIEKFKGKATLTADKSSSTAYMQLSSLTSDDSAVYFCARGANWDVGFAYWGQGTLVTVSA
VL: EIQMTQSPSSMSASLGDRITITCQATQDIVKNLNWYQQKPGKPPSFLIYYATELAEGVPSRFSGSGSGSDFSLTISNLESEDFADYYCLQFHEFPRTFGGGTKLEIK
notes: monoclonal with mouse IgG constant regions
Regarding B1, in test [1], the dissociation constant (Kd) (commonly the equilibrium constant for the complex coming apart) came out at 20 nM, the koff (commonly a measure of how fast the partners let go of each other) was 0.0013 s⁻¹ and the kon (commonly the rate constant with which the complex forms) worked out at 61000 M⁻¹ s⁻¹. Moreover, in test [2], the Kd amounted to 3.3 nM, the koff was 0.00016 s⁻¹ and the kon is 48000 M⁻¹ s⁻¹.

B2: GPN18-6 (antibody, V domains shown)
VH: EVQLQQSGPELVMPGSSVKISCKASGYTFTDYYMNWVRQSHGKSLEWIGDINPINGDITYNQKFKGKATLTVDKSSSTDYMELRGLTSEDSAVYYCAREAFFGYKGNYFDYWGQGTTLTVSS
VL: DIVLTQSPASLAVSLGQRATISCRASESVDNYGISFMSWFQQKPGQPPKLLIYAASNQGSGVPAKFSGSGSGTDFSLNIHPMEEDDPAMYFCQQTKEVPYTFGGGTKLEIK
notes: as for B1
Turning to B2, in test [1], the Kd is 31 nM, the koff was 0.00098 s⁻¹ and the kon turned out to be 32000 M⁻¹ s⁻¹. Also, in test [2], the Kd turned out to be 24 nM, the koff was 0.00065 s⁻¹ and the kon worked out at 27000 M⁻¹ s⁻¹.

B3: GPN15-3 (antibody, V domains shown)
VH: QVTLKESGPGILQPSQTLSLTCSFSGFSLTTSGMGVGWIRQPSGKGLEWLADMWWDDDKNYNPSLKSRLTISKDNSKKQVFLKIASVDTADTATYYCARRVYSSWFAYWGQGTLVTVSA
VL: DIVMTQSQKFMSTSVGDRVSVTCKASQNVGANVAWYQQKPGQSPKTLIYSASYRYGGVPDRFTGSGSGTDFTFTITNVQSEDLAEYFCQQYNNYPLTFGAGTKLDLK
notes: as for B1
For B3, in test [1], the Kd came to 2.9 nM, the koff worked out at 0.00036 s⁻¹ and the kon worked out at 130000 M⁻¹ s⁻¹. In test [2], the Kd was 2.9 nM, the koff came out at 0.00037 s⁻¹ and the kon was 130000 M⁻¹ s⁻¹.

B4: 1-5E (antibody, V domains shown)
VH: EVQLQQSGAELVRSGASVKLSCTASGFNIKDYYMHWVKQRPDQGLEWIGWIDPENGDTEYAPKFQGKATMTADTSPNTAYLQLSSLTSEDTAVYYCNGVYYGSRGFFDYWGQGTTLTVSS
VL: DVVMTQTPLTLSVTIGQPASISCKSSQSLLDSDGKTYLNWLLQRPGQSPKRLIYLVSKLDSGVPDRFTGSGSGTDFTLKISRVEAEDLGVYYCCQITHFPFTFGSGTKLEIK
notes: obtained by immunization with a vaccine peptide of a previous report; also called vaccine peptide antibody
In the case of B4, in test [1], the Kd amounted to 9.1 nM, the koff was 0.0061 s⁻¹ and the on-rate (kon) stood at 670000 M⁻¹ s⁻¹.

B5: GPN06-1 (antibody, V domains shown)
VH: QVQLQQPGAEIVRPGASVKLSCKASGYTFTDNWMGWVKQRPGQGLEWIGAIDPSDSFTNYNQNFKGKATLTVDTSSSTAYMQLSSLTSEDSAVYFCTRSGYYGSPKLGGDYWGQGTTLTVSS
VL: QIVLTQSPAIMSASLGEEITLTCSASSSISYMHWYQQKSGTSPKLLIYSTSNLASGVPSRFSGSGSGTFYSLTISSVEAEDAADYYCHQWNSYPCTFGGGTKLEIK
notes: as for B1
For the molecule B5, in test [1], the Kd is 12 nM, the koff is 0.0018 s⁻¹ and the kon turned out to be 150000 M⁻¹ s⁻¹. Further, in test [2], the Kd was 1.4 nM, the koff amounted to 0.00049 s⁻¹ and the kon is 340000 M⁻¹ s⁻¹.

B6: GPN18-1 (antibody, V domains shown)
VH: QVTLKESGPGILQPSQTLSLTCSFSGFSLSTSVMGVGWIRQPSGKGLEWLADIWWDDDKDYNPSLKSRLTISKDTSKNQVFLKIASVDTADTATYYCARAYYSNYEYYGMDYWGQGTSVTVSS
VL: DVLMTQTPLSLPVSLGDQASISCRSSQSIVHSNGNTYLEWYLQKPGQSPKLLIYKVSNRFSGVPDRFSGSGSGTDFTLKISRVEAEDLGVYYCFQGSHVPFTFGSGTKLEIK
notes: as for B1
On to B6, for which, in test [1], the Kd stood at 24 nM, the koff came to 0.00091 s⁻¹ and the kon was 38000 M⁻¹ s⁻¹. In addition, in test [2], the Kd is 14 nM, the koff was 0.00054 s⁻¹ and the kon came out at 38000 M⁻¹ s⁻¹.

B7: GPN18-2 (antibody, V domains shown)
VH: QVTLKESGPGILQPSQTLSLTCSFSGFSLSTSVMGVGWIRQPSGKGLEWLADIWWDDDKDYNPSLKSRLTISKDTSKNQVFLKIASVDTADTATYYCARTYYSNYEYYGMDYWGQGTSVTVSS
VL: DVLMTQTPLSLPVSLGDQASISCRSSQTIILSNGNTYLEWYLQKPGQSPKLLIYKVSNRFSGVPDRFSGSGSGTDFTLKISRVEAEDLGVYYCFQGSHVPFTFGSGTKLEIK
notes: as for B1
Consider B7, for which, in test [1], the Kd turned out to be 3.3 nM, the koff worked out at 7.9e-05 s⁻¹ and the kon stood at 24000 M⁻¹ s⁻¹. Also, in test [2], the Kd worked out at 2.2 nM, the koff amounted to 6.8e-05 s⁻¹ and the kon was 31000 M⁻¹ s⁻¹.

B8: GPN18-7 (antibody, V domains shown)
VH: QVTLKESGPGILQPSQTLSLTCSFSGFSLSTSVMGVGWIRQPSGKGLEWLADIWWDDDKDYNPSLKSRLTISKDTSKNQVFLKIASVDTADTATYYCARAYYSNFEYYGMDYWGQGTSVTVSS
VL: DVLMTQIPLSLPVSLGDQASISCRSSQTIVHSNGNTYLEWYLQKPGQSPKLLIYKVSNRFSGVPDRFSGSGSGTDFTLKISRVEAEDLGVYYCFQGSHVPFTFGSGTKLEIK
notes: as for B1
As to B8, in test [1], the Kd came out at 49 nM, the koff came out at 0.00099 s⁻¹ and the kon came out at 20000 M⁻¹ s⁻¹. In test [2], the Kd was 23 nM, the koff stood at 0.00059 s⁻¹ and the kon is 26000 M⁻¹ s⁻¹.

B9: GPN11-10 (antibody, V domains shown)
VH: QVNLLQSGAALVKPGASVRLSCKTSGYTFTDCYIHWVRQSHGKSLEWIGFINPNSGYTFYNEKFKSKATLTVAKSTNTAYMELSRLTSEDSATYFCTRGDYYTSNLYDWFAYWGQGTLVTVSS
VL: DTVMTQSPASMSTSVGERVTVNCKASQTVGTVVAWFQQKPGQSPKRLIYWATNRHTGVPDRFTGSGFGRDFSLTISNVEAEDLAVYYCLQYGSVPPTFGGGTKLELK
notes: as for B1
For B9, in test [1], the Kd is 4.9 nM, the koff turned out to be 0.00037 s⁻¹ and the kon was found to be 75000 M⁻¹ s⁻¹. Further, in test [2], the Kd was 13 nM, the koff amounted to 0.001 s⁻¹ and the kon was 81000 M⁻¹ s⁻¹.

B10: GPN15-2 (antibody, V domains shown)
VH: QVQLQQPGAELVKPGASVKMSCKASGYTFTNHNMHWVKQTPGQGLEWIGAFYTGNGDTSYNQKFKGKATLTADKSSSTAYIQLSSLTSEDSAVYYCARERYDGYYIAMDYWGQGTSVTVSS
VL: QIVLTQSPAFMSVSPGEKVTMTCSASSSVYYMFWYQQKPRSSPKPWIYLTSKLASGVPARFSGSGSGTSYSVTISSMEAEDAATYYCQQWSSNPQWTFGGGTKLEIK
notes: as for B1
On to B10, for which, in test [1], the Kd is 2 nM, the koff is 0.00028 s⁻¹ and the kon was 140000 M⁻¹ s⁻¹. Also, in test [2], the Kd turned out to be 0.0035 nM, the koff amounted to 6e-07 s⁻¹ and the kon was found to be 170000 M⁻¹ s⁻¹.

B11: GPN18-4 (antibody, V domains shown)
VH: QVQLQQSGAELTKPGTSVKMSCKASGYTLSSYWMNWIKQRPGQGLEWIGTINPSNNYTAYNLKFKDKAMLTADKSSSTAYMQLSSLTSEDSAVYYCATWGYWGQGTTLTVSS
VL: DIVMTQSHKFMSTSVGDRVSITCKASQDVSTAVAWHQQKPGQPPKLLIYSASYRYTGVPDRFTGSGSGTDFTFTISSVQTEDLAIYYCQHHYTTTWTFGGGTKLEIR
notes: as for B1
Turning to B11, in test [1], the Kd is 3.8 nM, the koff was found to be 0.00012 s⁻¹ and the kon worked out at 30000 M⁻¹ s⁻¹. Also, in test [2], the Kd was found to be 0.32 nM, the koff worked out at 1.5e-05 s⁻¹ and the kon is 47000 M⁻¹ s⁻¹.

B12: GPN09-1 (antibody, V domains shown)
VH: QVQLKASGPGLVQPSQTLSLTCTVSGLSLTSININWIRQPPGKGLEWMGVIWSDGDTDFNSAVKSRLSISRDTSKSQVFLNMNSLQTEDTAMYFCARGIRDWGQGVMVTVSS
VL: DIVMTQTPLSLSVAIGQSASISCKSSQSLKYSDGKTYLNWVFQSPGQSPKRLIYQVSKLDSGVPDRFSGTGSETDFTLKISRVEAEDLGVYYCCQGSYSPHTFGSGTKLEIK
notes: as for B1
In the case of B12, in test [1], the Kd is 2.6 nM, the koff is 0.00042 s⁻¹ and the kon is 160000 M⁻¹ s⁻¹.

B13: GPN18-5 (antibody, V domains shown)
VH: QVQLQQSGAELAKPGTSVKMSCKASGYTFTTYWMNWVKQRPGQDLEWIGAINPSNDYTEYNQKFKDKAILTADKSSNTAYMQLSSLTSEDSAVYYCGRSYSPDYWGQGTTLTVSS
VL: DIVMTQSQKFMSTSVGDRVSVTCKASQNVDNHVAWHQQKPGQSPKALIYSASYRYSGVPDRFTGSGSGTDFTLTIRDVQSEDLADYFCQQYKSYPFTFGSGTELEIK
notes: as for B1
As to B13, in test [1], the Kd stood at 7.7 nM, the koff turned out to be 0.0007 s⁻¹ and the kon amounted to 91000 M⁻¹ s⁻¹. In test [2], the Kd amounted to 2 nM, the koff amounted to 0.0003 s⁻¹ and the kon stood at 150000 M⁻¹ s⁻¹.
